T1: human ICOS expressed on cells (human, UniProt Q9Y6W8 21-199)
T1 construct: also called CHO-S cells transfected with human ICOS; hICOS
T1 sequence: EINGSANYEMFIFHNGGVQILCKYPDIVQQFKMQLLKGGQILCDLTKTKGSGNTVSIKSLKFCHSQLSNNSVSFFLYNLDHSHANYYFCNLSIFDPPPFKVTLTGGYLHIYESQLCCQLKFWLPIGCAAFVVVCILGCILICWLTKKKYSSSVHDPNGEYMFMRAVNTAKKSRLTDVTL

T2: mouse ICOS-mFc (Chimerigen) (mouse, UniProt Q9WVS0 21-141, limits assumed)
T2 construct: Bought; also called recombinant mouse ICOS protein; mICOS; not shown: mouse Fc of the bought fusion
T2 sequence: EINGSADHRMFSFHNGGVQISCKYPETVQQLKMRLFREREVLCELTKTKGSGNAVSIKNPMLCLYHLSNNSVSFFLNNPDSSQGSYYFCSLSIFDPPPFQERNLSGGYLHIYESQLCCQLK


Legend:
[1] = target: T3, mouse PD-L1 expressed on CHO cells (mouse, UniProt Q9EP73 19-290); assay: Flow cytometry on CHO mouse PD-L1 cells (sentence prints 'human PD-L1')
T3 construct: also called CHO-S cells transfected with mPD-L1; CHO mouse PD-L1
T3 sequence (Q9EP73 19-290 limits assumed): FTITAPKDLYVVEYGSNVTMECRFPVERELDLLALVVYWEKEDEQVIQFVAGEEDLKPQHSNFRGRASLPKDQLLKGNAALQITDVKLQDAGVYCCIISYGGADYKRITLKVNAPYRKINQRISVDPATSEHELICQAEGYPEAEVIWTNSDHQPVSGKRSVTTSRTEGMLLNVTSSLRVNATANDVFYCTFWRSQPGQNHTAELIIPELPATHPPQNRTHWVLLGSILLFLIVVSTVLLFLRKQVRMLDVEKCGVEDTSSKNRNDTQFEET

[2] = target: T1, human ICOS expressed on cells; assay: Flow cytometry on CHO-S human ICOS cells, anti-human IgG AF647, N=3
Experimental: CHO—S cells transfected with either human ICOS or mouse ICOS were resuspended in FACS buffer (PBS+1% w/v BSA+0.1% w/v sodium azide) and transferred to a 96-well V-bottom plate (Greiner) at a density of 1×10⁵ cells per well. mAb and mAb² were titrated in FACS buffer, 1 in 3 dilution across 11 points from a starting working concentration of 400 nM. Plates were centrifuged at 300×g for 3 minutes, supernatant discarded and 50 μL mAb or mAb² solution were added to cells and incubated at 4° C. for 1 hour. Cells were washed with 150 μL of PBS and centrifuged at 300×g for 3 minutes, supernatant was discarded and cell pellet resuspended in 150 μL PBS added. This wash step was repeated twice. Bound mAb or mAb² was detected by addition of 50 μL of anti-human 647 (Jackson ImmunoResearch) diluted to 3 ug/ml in FACS buffer. Cells were incubated for 1 hour at 4° C. in the dark. Cells were washed with 150 μL of PBS and centrifuged at 300 g for 3 minutes, supernatant was discarded and cell pellet resuspended in 150 μL PBS added. This wash step was repeated twice. Cells were fixed with 25 μL 4% v/v paraformaldehyde, incubated for 20 minutes at 4° C., cells were pelleted by centrifugation at 300×g and the supernatant discarded. […] AlexaFluor 647 signal intensity (geometric mean) was measured by flow cytometry using a Beckman Coulter CytoFLEX instrument.

[3] = target: T2, mouse ICOS-mFc (Chimerigen); assay: DELFIA ELISA on coated mouse ICOS-mFc, N=2
Experimental: Recombinant ICOS proteins, human ICOS-mFc or mouse ICOS-mFc (Chimerigen) were diluted in 1×PBS and added to Black Hi-bind plates (Griener) at 1 μg/ml, 50 μl/well. Recombinant PD-L1 proteins, human PD-L1-Flag-His or mouse-His were diluted in 1×PBS and added to Black Hi-bind plates (Griener) at 4 μg/ml, 50 μl/well. The plates were left overnight at 4° C. The next day plates were washed 3× with 300 μl/well of 1×PBS+0.1% Tween and blocked with 200 ul/well of 1×PBS+1% BSA blocking buffer for 1 hr at RT on a plate shaker. Plates were washed 3× with 300 μl/well of 1×PBS+0.1% Tween.
However, human-PD-L1 mAb² antibodies were diluted in 1×PBS+0.1% BSA buffer and diluted 1 in 2 from a starting working concentration of 0.066 μM over an 11 point titration. Titrated antibodies were added to the plates, 50 μl/well and left to incubate for 1 hr at R.T on a plate shaker. Plates were washed 3× with 300 μl/well of 1×PBS+0.1% Tween.
DELFIA® Eu-labelled Anti-human IgG (Perkin-Elmer) was diluted 1:500 in DELFIA Assay buffer (Perkin-Elmer) and added to the assay plate (50 μl/well), left to incubate for 1 hr at RT on a plate shaker. […] After incubation, assay was read on Envision plate reader (Perkin Elmer), Time-resolved fluorescence (TRF) was measured at 615 nm.

[4] = target: T1, human ICOS expressed on cells; assay: cell-based or functional assay
[5] = target: T2, mouse ICOS-mFc (Chimerigen); assay: HTRF, mouse ICOS-mFc, competitor mouse B7-H2-Alexa 647, n3
Experimental: 5 μl of human ICOS-mFc (Chimerigen) at 20 nM (5 nM final) or 5 ul of mouse ICOS-mFc (Chimerigen) at 4 nM (1 nM final) were added to relevant assay wells. Plate was incubated for 1 hour (hr) at room temperature (RT).
After incubation, assay was read on Envision plate reader (Perkin Elmer) using a standard HTRF protocol. 620 nm and 665 nm channel values were exported to Microsoft Excel and % Delta-F and % Neutralisation calculations performed. Titration curves and IC50 values [M] were plotted using Graphpad (Prism). IC50 values were calculated by first transforming the data using equation X=Log(X). The transformed data was then fitted using nonlinear regression, using fitting algorithm, log (inhibitor) vs. response—variable slope (four parameters).

[6] = target: FcγRIIIa on effector cells (Jurkat NFAT luciferase v-variant effector cells, Promega) (human, UniProt P08637 17-254); assay: cell-based or functional assay
Sequence of FcγRIIIa on effector cells (Jurkat NFAT luciferase v-variant effector cells, Promega) (P08637 other isoform, or with tags, fused parts or gaps mutant limits assumed): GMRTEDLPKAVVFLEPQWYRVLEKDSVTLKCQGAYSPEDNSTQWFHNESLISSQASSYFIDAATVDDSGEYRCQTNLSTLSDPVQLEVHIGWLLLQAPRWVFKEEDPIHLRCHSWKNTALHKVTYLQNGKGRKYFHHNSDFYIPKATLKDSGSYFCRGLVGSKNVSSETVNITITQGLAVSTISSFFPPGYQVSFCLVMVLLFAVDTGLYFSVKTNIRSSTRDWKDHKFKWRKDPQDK

binding result [1]	EC50 [2] [nM]	EC50 [3] [nM]	EC50 of IFN-γ production, plate-bound antibody, human T-cells + CD3/CD28 beads, donor 276 [4] [nM]	EC50 of IFN-γ production, plate-bound antibody, human T-cells + CD3/CD28 beads, donor 278 [4] [nM]	EC50 of IFN-γ production, plate-bound antibody, human T-cells + CD3/CD28 beads, donor 289 [4] [nM]	EC50 of IFN-γ production, plate-bound antibody, human T-cells + CD3/CD28 beads, donor 295 [4] [nM]	EC50 of IFN-γ production, plate-bound antibody, human T-cells + CD3/CD28 beads, median [4] [nM]	IC50 [5] [nM]	EC50 of luciferase fold of induction, CHO human ICOS target cells, N=1 [6] [nM]	EC50 of luciferase fold of induction, CHO human ICOS target cells, N=2 [6] [nM]	EC50 of luciferase fold of induction, CHO human ICOS target cells, N=3 [6] [nM]	EC50 of luciferase fold of induction, CHO human ICOS target cells, mean [6] [nM]	EC50 of luciferase fold of induction, CHO mouse ICOS target cells, N=1 [6] [nM]	EC50 of luciferase fold of induction, CHO mouse ICOS target cells, N=2 [6] [nM]	EC50 of luciferase fold of induction, CHO mouse ICOS target cells, N=3 [6] [nM]	EC50 of luciferase fold of induction, CHO mouse ICOS target cells, mean [6] [nM]	Binder
no binding (tested: 22 nM)	19.7	18.7	~9.9	~10.2	~11.2	14.5	10.7	9.25	0.456	0.247	0.147	0.283	0.479	0.534	0.579	0.53	STIM001 (antibody, human IgG1, kappa, Anti-ICOS monospecific antibody, tested as human IgG1; also called STIM001 monoclonal IgG1 antibody) heavy: not shown light: DIVMTQSPLSLPVTPGEPASISCRSSQSLLHSNEYNYLDWYLQKPGQSPQLLIFLGSNRASGVPDRFSGSGSGTDFTLKITRVEAEDVGIYYCMQSLQTPLTFGGGTKVEIKRTVAAPSVFIFPPSDEQLKSGTASVVCLLNNFYPREAKVQWKVDNALQSGNSQESVTEQDSKDSTYSLSSTLTLSKADYEKHKVYACEVTHQGLSSPVTKSFNRGEC
no binding (tested: 22 nM)	4.49	0.386	7.1	3.8	~4	~11.6	5.55	0.11	0.326	0.477	0.24	0.347	0.508	0.754	0.703	0.655	STIM003 (antibody, human IgG1, kappa, Anti-ICOS monospecific antibody, tested as human IgG1; also called STIM003 monoclonal IgG1 antibody) heavy: not shown light: EIVLTQSPGTLSLSPGERATLSCRASQSVSRSYLAWYQQKRGQAPRLLIYGASSRATGIPDRFSGDGSGTDFTLSISRLEPEDFAVYYCHQYDMSPFTFGPGTKVDIKRTVAAPSVFIFPPSDEQLKSGTASVVCLLNNFYPREAKVQWKVDNALQSGNSQESVTEQDSKDSTYSLSSTLTLSKADYEKHKVYACEVTHQGLSSPVTKSFNRGEC
